Assay results from patent US20250276081A1, “Mucin-Active Proteases and Methods of Use” (priority 2022, published 2025).

Columns and labels:
[1] = In vivo toxicity of StcE (maximum tolerated dose, necropsy); parameters: species or system mouse
Method: In vivo toxicity studies. 10-week-old C57BL/6 mice (bred in-house) were injected with PBS or StcE (0.15 mg/kg or 15 mg/kg) via intravenous injection. 9-week-old female BALB/cJ mice (Jackson Labs) were injected with PBS or 10 mg/kg αHER2-eStcE via intraperitoneal injection. Mice were submitted to the Animal Diagnostic Lab at Stanford University for necropsy and complete blood count (CBC) analyses 3 h post injection.

[2] = target: T1, cell surface CD43 (K562, CCRF-CEM, CCRF-HSB-2 cells) (Homo sapiens, UniProt P16150); test: CD43 flow cytometry of leukemia cell lines; type: cell-based; conditions: 50 nM StcE, 1 h
T1 construct: endogenous in cells; host or cells: K562, CCRF-CEM, CCRF-HSB-2
T1 sequence (P16150 20-400): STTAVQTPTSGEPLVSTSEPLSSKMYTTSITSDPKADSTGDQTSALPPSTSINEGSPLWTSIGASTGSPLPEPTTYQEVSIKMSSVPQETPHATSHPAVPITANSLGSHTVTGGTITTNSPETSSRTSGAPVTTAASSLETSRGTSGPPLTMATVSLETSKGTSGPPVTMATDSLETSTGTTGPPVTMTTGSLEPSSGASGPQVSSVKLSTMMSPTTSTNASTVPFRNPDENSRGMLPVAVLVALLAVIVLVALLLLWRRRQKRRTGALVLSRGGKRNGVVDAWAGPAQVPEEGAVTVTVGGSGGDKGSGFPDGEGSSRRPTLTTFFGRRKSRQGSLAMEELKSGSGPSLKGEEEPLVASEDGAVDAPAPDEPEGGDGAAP
Method: CD43 and Siglec-7-Fc flow cytometry. 1×10^6 K562, CCRF-CEM, or CCRF-HSB-2 cells growing in log phase were harvested, resuspended in 1 mL of serum-free RPMI, and treated with either vehicle or 50 nM StcE for 1 h. Cells were subsequently spun down at 600× g and washed twice in PBS. Cells were then resuspended in FACS buffer (0.5% BSA in PBS) at 1×10^6 cells/mL and aliquoted into a V-bottom 96-well plate (Corning) at 1×10^5 cells/well. For staining, a precomplex solution of 1 μg/mL Siglec-7-Fc (R&D Systems) and 1 μg/mL Alexa Fluor 488-antihFc was made up in FACS buffer and incubated on ice for 1 h. Alexa Fluor 647 CD43/sialophorin antibody (MEM-59 clone) (Novus Biologicals) was subsequently added to the precomplex solution prior to staining. Cells were stained in 100 μL of staining solution for 30 min, washed twice with FACS buffer, and analyzed by flow cytometry using a BD Accuri C6 plus.

[3] = target: T2, cell surface mucins (CD43) on mixed K562^±HER2 cells (Homo sapiens, UniProt P16150); test: K562 mixed cell CD43 cleavage assay; type: cell-based; conditions: 1 nM, overnight
T2 construct: endogenous in cells; host or cells: K562 and K562^HER2 (HER2 retrovirally transduced; CD43 endogenous)
T2 sequence (P16150 20-400): T1 sequence (P16150 20-400)
Method: K562 mixed cell CD43 cleavage assay. 2.5×10^5 K562 and K562^HER2 cells were allocated per well to a 96-well ultra-low attachment round bottom plate in 150 μL of complete media. 50 μL of mucinases in PBS were added to wells and the plate was incubated (overnight unless stated otherwise) at 37° C. Cells were washed twice with cold FACS buffer with 2 mM EDTA, once with cold FACS buffer, and stained with Alexa Fluor 488 anti-human CD340 (erbB2/HER-2) antibody (24D2 clone) (BioLegend) and Alexa Fluor 647 CD43/sialophorin antibody (MEM^−59 clone) (Novus Biologicals) in FACS buffer supplemented with 0.1% benzonase on ice protected from light. Cells were washed three times with cold FACS buffer with 2 mM EDTA and stained with 1 μM Sytox AADvanced (Thermo Fisher Scientific) or 1 μM Sytox Blue in FACS buffer with 2 mM EDTA for 5 min on ice prior to analysis using a BD Accuri C6 plus or MACSQuant Analyzer 10 Flow Cytometer (Miltenyi Biotec). Samples were compensated using single-stained controls in FlowJo v. 10.0. Unstained and PBS-treated samples were used to define 0% and 100% cell surface CD43, respectively, and each sample was normalized to percent CD43 within each replicate. Using GraphPad Prism 9, replicates were fitted to inhibitor concentration vs normalized response.

[4] = test system: leukemia cell lines (K562, CCRF-CEM, CCRF-HSB-2); test: NK cell killing assay with mucinase-treated leukemia cell lines; type: cell-based, human
Method: NK cell isolation. PBMC aliquots were quickly thawed and diluted in 10 mL of RPMI containing DNAase to break up cell aggregates. Cells were incubated at 5% CO2, 37° C. for 30 min and subsequently counted in duplicate. Cells were then spun down at 600× g and resuspended in RPMI to a final cell concentration of 50×10^6 cells/mL. Isolation of NK cells was performed according to manufacturer's instructions using an NK cell magnetic isolation kit (Stem Cell Technologies). NK cells were cultured for at least 24 h before conducting experiments. For killing experiments, NK cells were cultured for 24 h in complete media containing 0.2-0.5 μg/mL IL-2 (BioLegend).
NK cell killing assays. Target cells were harvested by centrifugation and resuspended in serum-free RPMI containing 5 μM Cell Tracker Far Red (Thermo Fisher Scientific) at 5×10^5 cells/mL. Cells were then incubated for 30 min at 37° C.; where indicated, cells were treated with […] StcE. Following staining and StcE treatment, cells were spun down, washed twice with PBS containing 1 mM EDTA, and resuspended in complete media. Cells were diluted to 1×10^5 cells/mL in complete media containing 100 nM Sytox Green, and 100 μL of cell suspension was aliquoted into a flat bottom 96-well plate. Separately, NK cells were diluted to various cell concentrations to generate the indicated effector: target ratios in complete media containing 100 nM Sytox Green. Where indicated, these cell suspensions were treated with 20 nM StcE for 30 min, washed twice with PBS containing 1 mM ETDA, and resuspended in complete media containing 100 nM Sytox Green. 100 μL of these cell suspensions was then mixed with the target cell suspensions to generate a total volume of 200 μL. Cells were incubated at 37° C. for 4 h and analyzed by flow cytometry.

## StcE: secreted protease of C1 esterase inhibitor, zinc metalloprotease pan mucinase from E. coli O157:H7; SEQ ID NO:1
[1]; 3 hours post injection of 15 mg/kg StcE I.V.
  Necropsy and CBC findings: hemorrhages underneath the skull, ecchymoses throughout the gastrointestinal tract, neutrophil accumulation in the lungs, and platelet depletion
[1]; Balb/c and C57BL/6 mice
  Maximum tolerated dose: 0.25 mg/kg
[1]; doses higher than 0.25 mg/kg
  Toxicity above the maximum tolerated dose: systemic toxicity
[2]
  Cell surface CD43 level: loss of cell surface CD43
[3]
  Removal of cell surface mucins on HER2- cells: complete removal
  Removal of cell surface mucins on HER2^+ cells: complete removal
[4]; NK cells treated with StcE
  NK cell killing after StcE treatment of the NK cells: no effect relative to untreated control
[4]; target cells treated with StcE, 4 h with NK cells
  NK cell killing of StcE-treated leukemia cells: increased NK cell surveillance
[4]; without NK cells, n=3
  Cytotoxicity of StcE treatment of leukemia cell lines: statistically significant baseline toxicity increase
